Laboratory results as given in publication PMC11429891.

Target: human recombinant SNAP25 (Synaptosomal Associated Protein 25) (human) (UniProt P60880)
Test: SPR

Chain of human recombinant SNAP25 (Synaptosomal Associated Protein 25) (human) (P60880 whole entry): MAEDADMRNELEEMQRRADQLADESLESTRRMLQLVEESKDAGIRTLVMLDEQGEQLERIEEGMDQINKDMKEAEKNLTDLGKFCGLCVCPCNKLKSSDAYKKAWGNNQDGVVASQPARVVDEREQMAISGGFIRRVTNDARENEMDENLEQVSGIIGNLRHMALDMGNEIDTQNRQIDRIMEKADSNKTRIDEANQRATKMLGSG

Human type V Collagen (from UniProt P20908 38-1605; P05997 27-1229) (complex)
Kd: 7.2 µM
